The target of test [1] is SNAPf-tagged EWS/FLI1 (human). The test is described as follows: live-cell single-particle tracking.
In test [2] the target is FUS LCD (UniProt P35637). The test is described as follows: live-cell single-particle tracking.
Sequence of UniProt P35637 (P35637 2-214): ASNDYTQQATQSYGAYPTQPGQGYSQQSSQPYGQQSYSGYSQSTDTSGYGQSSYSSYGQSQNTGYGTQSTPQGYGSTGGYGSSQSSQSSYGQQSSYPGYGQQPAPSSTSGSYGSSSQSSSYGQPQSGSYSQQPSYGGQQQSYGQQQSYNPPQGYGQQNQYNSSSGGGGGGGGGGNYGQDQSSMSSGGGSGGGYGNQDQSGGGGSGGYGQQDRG

As for EWS LCD-Halo (domain or fragment), in test [1], the residence time (RT) amounted to 16 s. In the case of EWS(YS) LCD-Halo (domain or fragment), in test [1], the residence time (RT) stood at 7 s. In the case of “Sp1 LCD (from UniProt P08047 1-785) (domain or fragment)”, the residence time (RT) in test [2] was less than 1 s.
